The values that follow come from patent publication US20240010750A1 (Bayer, published 2024).

In experiment [1] the target is T1, A2AP peptides with the consensus motif SRMSLSS (human).
T1 construct: Consensus motif shared by the reacting peptides of the PEPperCHIP arrays (linear 15-mers; cyclic 7-, 10- and 13-mers closed by a thioether)
T1 peptide: SRMSLSS
Kind of experiment: PEPperCHIP peptide microarray, antibody at 1 µg/ml. The protocol:
(§1) Antibodies were incubated on the Microarray in concentrations of 1 μg/ml, 10 μg/ml and 100 μg/ml in incubation buffer. Incubation time was 16 h at 4° C. and shaking at 140 rpm.
(§2) As secondary antibody the goat anti-human IgG (Fc) DyLight680 was used at a dilution of 1:5000. This detection antibody was incubated on the Microarray at 45 min staining in incubation buffer at room temperature.
(§3) Microarray image analysis was done with PepSlide® Analyzer. A software algorithm was used to break down fluorescence intensities of each spot into raw, foreground and background signal, and calculated averaged median foreground intensities and spot-to-spot deviations of spot duplicates. Based on averaged median foreground intensities, an intensity map was generated and interactions in the peptide map highlighted by an intensity color code with red for high and white for low spot intensities. Averaged spot intensities of the assays were plotted with the antibody samples against the antigen sequence from the N- to the C-terminus to visualize overall spot intensities and signal-to-noise ratios. The intensity plots were correlated with peptide and intensity maps as well as with visual inspection of the microarray scans to identify the epitopes of the tested antibodies.

Experiment [2] concerns the target T1, A2AP peptides with the consensus motif …. Kind of experiment: PEPperCHIP peptide microarray, antibody at 10 µg/ml. On the procedure: as §1, §2, §3
Another experiment addresses T2, human alpha2-Antiplasmin (human, UniProt P08697 40-491).
T2 construct: Bought (antibodies online, ABIN2544306); also called human A2AP; a2AP
T2 sequence: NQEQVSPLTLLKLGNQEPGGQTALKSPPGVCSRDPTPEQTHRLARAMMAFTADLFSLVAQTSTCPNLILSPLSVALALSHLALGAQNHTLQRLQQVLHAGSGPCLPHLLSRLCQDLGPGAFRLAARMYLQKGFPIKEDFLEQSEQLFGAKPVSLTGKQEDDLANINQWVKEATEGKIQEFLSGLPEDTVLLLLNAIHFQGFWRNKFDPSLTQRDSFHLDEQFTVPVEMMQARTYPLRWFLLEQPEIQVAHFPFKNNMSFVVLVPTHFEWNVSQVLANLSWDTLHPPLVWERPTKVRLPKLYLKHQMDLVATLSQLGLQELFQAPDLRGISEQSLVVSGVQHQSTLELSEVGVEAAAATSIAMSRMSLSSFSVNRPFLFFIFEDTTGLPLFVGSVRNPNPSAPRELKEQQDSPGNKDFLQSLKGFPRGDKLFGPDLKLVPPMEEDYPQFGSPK
The experiment is described as follows: SPR Biacore T200, antibody captured on protein G chip, A2AP as analyte, 25 C.

Experiment [3] addresses T3, rabbit alpha2-Antiplasmin (rabbit (Oryctolagus cuniculus)).
T3 construct: Made in house in HEK293 cells, purified by Ni-IMAC and SEC (a His tag is implied but not described); also called rabbit A2AP; Oryctolagus cuniculus A2AP
T3 chain: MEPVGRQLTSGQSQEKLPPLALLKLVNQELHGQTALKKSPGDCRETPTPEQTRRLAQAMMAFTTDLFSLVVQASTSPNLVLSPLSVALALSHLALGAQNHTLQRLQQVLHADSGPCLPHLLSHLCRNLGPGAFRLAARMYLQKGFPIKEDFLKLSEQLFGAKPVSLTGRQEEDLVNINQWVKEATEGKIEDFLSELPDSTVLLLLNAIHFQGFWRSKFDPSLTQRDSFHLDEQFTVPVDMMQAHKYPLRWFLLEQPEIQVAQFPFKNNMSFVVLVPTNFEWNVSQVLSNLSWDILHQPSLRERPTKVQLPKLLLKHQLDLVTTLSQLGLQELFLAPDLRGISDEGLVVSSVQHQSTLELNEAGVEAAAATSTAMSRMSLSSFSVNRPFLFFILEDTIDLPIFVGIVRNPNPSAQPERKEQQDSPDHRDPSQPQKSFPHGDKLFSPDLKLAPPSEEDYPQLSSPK
The description is as above.

The target in experiment [4] is T4, cynomolgus alpha2-Antiplasmin (cynomolgus (Macaca fascicularis), UniProt P08697 28-491 (human entry)).
T4 construct: Made in house in the same way as the rabbit protein; also called cynomolgus A2AP; Macaca fascicularis A2AP
T4 chain: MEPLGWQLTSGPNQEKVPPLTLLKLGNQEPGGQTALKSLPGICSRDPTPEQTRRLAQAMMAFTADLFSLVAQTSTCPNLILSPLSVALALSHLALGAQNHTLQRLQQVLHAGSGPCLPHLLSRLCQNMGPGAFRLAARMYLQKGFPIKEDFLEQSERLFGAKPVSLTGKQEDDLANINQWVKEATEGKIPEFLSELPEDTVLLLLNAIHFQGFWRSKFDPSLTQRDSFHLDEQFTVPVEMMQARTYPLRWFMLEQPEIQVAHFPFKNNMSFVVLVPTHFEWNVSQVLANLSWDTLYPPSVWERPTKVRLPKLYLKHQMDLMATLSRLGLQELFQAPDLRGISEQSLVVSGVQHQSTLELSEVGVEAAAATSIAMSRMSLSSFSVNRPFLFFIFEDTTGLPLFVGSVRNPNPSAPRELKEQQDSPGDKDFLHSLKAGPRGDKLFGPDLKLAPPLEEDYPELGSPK
Described as above.

B1: TPP-12387 hIgG1 (antibody, V domains shown)
VH: EVQLLESGGGLVQPGGSLRLSCAASGFTFDDYAMSWVRQAPGKGLEWVSAIGTGGGTYYADSVKGRFTISRDNSKNTLYLQMNSLRAEDTAVYYCAREYYDSSGYYHLDYWGQGTLVTVSS
VL: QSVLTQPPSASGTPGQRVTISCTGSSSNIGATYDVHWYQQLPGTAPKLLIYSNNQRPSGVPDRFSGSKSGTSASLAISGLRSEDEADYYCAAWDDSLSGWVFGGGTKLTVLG
notes: Fully human IgG1 lambda from the BioInvent n-CoDeR Fab lambda library; parental lead antibody
Take B1: the “signal-to-noise-ratio at 1 µg/ml” value in experiment [1] came to 659. Also, in experiment [2], the “signal-to-noise-ratio at 10 µg/ml” value was 2260. Moreover, the values for the Kd (with human alpha2-Antiplasmin; in experiment [3]; in experiment [4]) were 0.18 µM, 0.043 µM and 0.1 µM, respectively.
